What all share (experiment): SEC
In general terms: SEC sorts molecules by how far they enter the pores of the column.

In experiment [1] the target is CdaA_(88-273) D172A (Leptospira interrogans str. Fiocruz L1-130).
Experiment [2] addresses CdaA_(88-273) R203A (Leptospira interrogans str. Fiocruz L1-130).
The target of experiment [3] is CdaA_(88-273) S222A (Leptospira interrogans str. Fiocruz L1-130).

The substance “CdaA_(88-273) D172A (domain or fragment)” showed a stoichiometry N in experiment [1] of 2.

Take “CdaA_(88-273) R203A (domain or fragment)”: in experiment [2], the stoichiometry N amounted to 2.

On to “CdaA_(88-273) S222A (domain or fragment)”, for which the stoichiometry N in experiment [3] worked out at 2.

One may read the stoichiometry N as the number of molecules, sites or subunits per partner or assembly.

(Values after article doi:10.1101/2025.04.15.648992.)
